# Measured values as given in the supplement of paper PMC9112550, “Optimization of the antimicrobial peptide Bac7 by deep mutational scanning” (BMC Biology, 2022).
# Tested on: Escherichia coli TOP10
# Assay: shrunken log2 fold change of peptide-encoding DNA abundance (4.5 h post-induction vs induction); higher = less antimicrobial activity (less host growth inhibition)
# Details: time post-induction: 4.5 h; library: site-saturation at positions 5, 18, 19, 20
# 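Also: peptides expressed intracellularly from a pBAD plasmid library in pooled LB shake-flask culture, induced with 0.3% L-arabinose, DNA abundance read by NGS, three biological replicates, DESeq2 with apeglm shrinkage.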
sequence,measurement,value
RRIRNRPPRLPRPRPRPSLCPRP,shrunken log2 fold change,0.0773
RRIRIRPPRLPRPRPRPNNQPRP,shrunken log2 fold change,-0.836
RRIRNRPPRLPRPRPRPMKTPRP,shrunken log2 fold change,-0.0393
RRIRMRPPRLPRPRPRPCFPPRP,shrunken log2 fold change,0.157
RRIRVRPPRLPRPRPRPTPTPRP,shrunken log2 fold change,0.349
RRIRKRPPRLPRPRPRPFISPRP,shrunken log2 fold change,-0.113
RRIRHRPPRLPRPRPRPAFWPRP,shrunken log2 fold change,0.741
RRIRPRPPRLPRPRPRPLANPRP,shrunken log2 fold change,-0.0209
RRIRNRPPRLPRPRPRPVCVPRP,shrunken log2 fold change,-0.04
RRIRHRPPRLPRPRPRPILHPRP,shrunken log2 fold change,-0.0471
RRIRTRPPRLPRPRPRPLLDPRP,shrunken log2 fold change,0.214
RRIRFRPPRLPRPRPRPHKVPRP,shrunken log2 fold change,-0.196
RRIRKRPPRLPRPRPRPPAIPRP,shrunken log2 fold change,0.657
RRIRPRPPRLPRPRPRPKVQPRP,shrunken log2 fold change,0.327
RRIRKRPPRLPRPRPRPTSAPRP,shrunken log2 fold change,0.797
RRIRYRPPRLPRPRPRPYPWPRP,shrunken log2 fold change,0.0116
RRIRNRPPRLPRPRPRPQKEPRP,shrunken log2 fold change,-0.0193
RRIRIRPPRLPRPRPRPMHDPRP,shrunken log2 fold change,-0.152
RRIRSRPPRLPRPRPRPSANPRP,shrunken log2 fold change,-0.0142
RRIRNRPPRLPRPRPRPQMWPRP,shrunken log2 fold change,-0.234
RRIRIRPPRLPRPRPRPLRFPRP,shrunken log2 fold change,-0.21
RRIRNRPPRLPRPRPRPWHMPRP,shrunken log2 fold change,-0.0135
RRIRLRPPRLPRPRPRPNVQPRP,shrunken log2 fold change,-0.275
RRIRRRPPRLPRPRPRPNQDPRP,shrunken log2 fold change,0.125
RRIRSRPPRLPRPRPRPNWHPRP,shrunken log2 fold change,-0.137
RRIRARPPRLPRPRPRPMGTPRP,shrunken log2 fold change,0.304
RRIRPRPPRLPRPRPRPRHPPRP,shrunken log2 fold change,0.357
RRIRPRPPRLPRPRPRPVYAPRP,shrunken log2 fold change,-0.261
RRIRYRPPRLPRPRPRPKSSPRP,shrunken log2 fold change,-0.147
RRIRWRPPRLPRPRPRPAKLPRP,shrunken log2 fold change,0.0566
RRIRIRPPRLPRPRPRPKCWPRP,shrunken log2 fold change,0.139
RRIRHRPPRLPRPRPRPAKIPRP,shrunken log2 fold change,-0.0242
RRIRERPPRLPRPRPRPICDPRP,shrunken log2 fold change,-0.221
RRIRIRPPRLPRPRPRPYLGPRP,shrunken log2 fold change,-0.279
RRIRSRPPRLPRPRPRPVEPPRP,shrunken log2 fold change,-0.0608
RRIRKRPPRLPRPRPRPYDLPRP,shrunken log2 fold change,0.115
RRIRPRPPRLPRPRPRPLSLPRP,shrunken log2 fold change,0.0584
RRIRYRPPRLPRPRPRPREMPRP,shrunken log2 fold change,-0.126
RRIRVRPPRLPRPRPRPGFMPRP,shrunken log2 fold change,-0.152
RRIRPRPPRLPRPRPRPHEIPRP,shrunken log2 fold change,-0.192
RRIRKRPPRLPRPRPRPRRDPRP,shrunken log2 fold change,0.491
RRIRARPPRLPRPRPRPRTHPRP,shrunken log2 fold change,0.259
RRIRDRPPRLPRPRPRPNYEPRP,shrunken log2 fold change,-0.252
RRIRFRPPRLPRPRPRPNKCPRP,shrunken log2 fold change,-0.273
RRIRFRPPRLPRPRPRPSAVPRP,shrunken log2 fold change,-0.119
RRIRMRPPRLPRPRPRPFKLPRP,shrunken log2 fold change,0.102
RRIRQRPPRLPRPRPRPPNCPRP,shrunken log2 fold change,0.0242
RRIRARPPRLPRPRPRPTIRPRP,shrunken log2 fold change,0.109
RRIRCRPPRLPRPRPRPEWAPRP,shrunken log2 fold change,0.292
RRIRQRPPRLPRPRPRPHCVPRP,shrunken log2 fold change,-0.0218
RRIRSRPPRLPRPRPRPYEHPRP,shrunken log2 fold change,-0.493
RRIRDRPPRLPRPRPRPCPHPRP,shrunken log2 fold change,-0.228
RRIRDRPPRLPRPRPRPVVFPRP,shrunken log2 fold change,0.457
RRIRWRPPRLPRPRPRPHRFPRP,shrunken log2 fold change,0.077
RRIRSRPPRLPRPRPRPLTCPRP,shrunken log2 fold change,-0.114
RRIRSRPPRLPRPRPRPIKIPRP,shrunken log2 fold change,-0.209
RRIRNRPPRLPRPRPRPWVNPRP,shrunken log2 fold change,-0.00663
RRIRYRPPRLPRPRPRPEHWPRP,shrunken log2 fold change,-0.0026
RRIRNRPPRLPRPRPRPDGPPRP,shrunken log2 fold change,0.01
RRIRRRPPRLPRPRPRPKVVPRP,shrunken log2 fold change,0.0343
RRIRQRPPRLPRPRPRPANNPRP,shrunken log2 fold change,-0.27
RRIRIRPPRLPRPRPRPQGAPRP,shrunken log2 fold change,0.0368
RRIRCRPPRLPRPRPRPSKGPRP,shrunken log2 fold change,-0.212
RRIRLRPPRLPRPRPRPSMEPRP,shrunken log2 fold change,-0.371
RRIRDRPPRLPRPRPRPYHPPRP,shrunken log2 fold change,-0.449
RRIRFRPPRLPRPRPRPAHSPRP,shrunken log2 fold change,-0.156
RRIRQRPPRLPRPRPRPNCHPRP,shrunken log2 fold change,-0.548
RRIRSRPPRLPRPRPRPTFQPRP,shrunken log2 fold change,0.0282
RRIRRRPPRLPRPRPRPSHVPRP,shrunken log2 fold change,0.151
RRIRDRPPRLPRPRPRPEYCPRP,shrunken log2 fold change,-0.0172
RRIRDRPPRLPRPRPRPGIWPRP,shrunken log2 fold change,0.252
RRIRLRPPRLPRPRPRPAFEPRP,shrunken log2 fold change,0.36
RRIRFRPPRLPRPRPRPTEPPRP,shrunken log2 fold change,0.00236
RRIRPRPPRLPRPRPRPDFQPRP,shrunken log2 fold change,0.262
RRIRRRPPRLPRPRPRPPHRPRP,shrunken log2 fold change,1.36
RRIRERPPRLPRPRPRPIAKPRP,shrunken log2 fold change,0.0393
RRIRMRPPRLPRPRPRPWSNPRP,shrunken log2 fold change,-0.254
RRIRDRPPRLPRPRPRPGGPPRP,shrunken log2 fold change,0.247
RRIRCRPPRLPRPRPRPTQFPRP,shrunken log2 fold change,0.167
RRIRVRPPRLPRPRPRPVMHPRP,shrunken log2 fold change,-0.0179
RRIRERPPRLPRPRPRPDGSPRP,shrunken log2 fold change,0.0355
RRIRSRPPRLPRPRPRPNQIPRP,shrunken log2 fold change,0.0721
RRIRNRPPRLPRPRPRPTPAPRP,shrunken log2 fold change,0.713
RRIRHRPPRLPRPRPRPGTKPRP,shrunken log2 fold change,-0.0254
RRIRNRPPRLPRPRPRPQGVPRP,shrunken log2 fold change,0.0991
RRIRHRPPRLPRPRPRPMTEPRP,shrunken log2 fold change,0.0178
RRIRYRPPRLPRPRPRPVESPRP,shrunken log2 fold change,-0.0746
RRIRNRPPRLPRPRPRPARAPRP,shrunken log2 fold change,0.44
RRIRSRPPRLPRPRPRPLIHPRP,shrunken log2 fold change,-0.279
RRIRRRPPRLPRPRPRPAPIPRP,shrunken log2 fold change,0.92
RRIRDRPPRLPRPRPRPLRFPRP,shrunken log2 fold change,0.61
RRIRRRPPRLPRPRPRPGLHPRP,shrunken log2 fold change,0.0196
RRIRARPPRLPRPRPRPQSFPRP,shrunken log2 fold change,-0.121
RRIRDRPPRLPRPRPRPVDIPRP,shrunken log2 fold change,-0.0995
RRIRQRPPRLPRPRPRPKWHPRP,shrunken log2 fold change,0.48
RRIRPRPPRLPRPRPRPNIPPRP,shrunken log2 fold change,-0.355
RRIRSRPPRLPRPRPRPKCMPRP,shrunken log2 fold change,-0.218
RRIRTRPPRLPRPRPRPEDKPRP,shrunken log2 fold change,-0.0305
RRIRSRPPRLPRPRPRPFPHPRP,shrunken log2 fold change,-0.16
RRIRWRPPRLPRPRPRPLEGPRP,shrunken log2 fold change,-0.158
RRIRNRPPRLPRPRPRPTRVPRP,shrunken log2 fold change,0.376
RRIRPRPPRLPRPRPRPSCRPRP,shrunken log2 fold change,-0.129
RRIRTRPPRLPRPRPRPRERPRP,shrunken log2 fold change,0.112
RRIRIRPPRLPRPRPRPCSQPRP,shrunken log2 fold change,-0.226
RRIRFRPPRLPRPRPRPTCTPRP,shrunken log2 fold change,-0.0787
RRIRKRPPRLPRPRPRPIFQPRP,shrunken log2 fold change,0.266
RRIRERPPRLPRPRPRPMQQPRP,shrunken log2 fold change,-0.0321
RRIRARPPRLPRPRPRPQRKPRP,shrunken log2 fold change,0.365
RRIRPRPPRLPRPRPRPLGAPRP,shrunken log2 fold change,0.426
RRIRYRPPRLPRPRPRPDRYPRP,shrunken log2 fold change,-0.0871
RRIRARPPRLPRPRPRPYREPRP,shrunken log2 fold change,-0.0268
RRIRWRPPRLPRPRPRPCNAPRP,shrunken log2 fold change,-0.0905
RRIRFRPPRLPRPRPRPYYMPRP,shrunken log2 fold change,-0.505
RRIRVRPPRLPRPRPRPEHFPRP,shrunken log2 fold change,0.131
RRIRFRPPRLPRPRPRPDRKPRP,shrunken log2 fold change,0.00132
RRIRFRPPRLPRPRPRPNLYPRP,shrunken log2 fold change,-0.716
RRIRERPPRLPRPRPRPAIEPRP,shrunken log2 fold change,-0.136
RRIRVRPPRLPRPRPRPMTCPRP,shrunken log2 fold change,-0.141
RRIRCRPPRLPRPRPRPNAAPRP,shrunken log2 fold change,0.975
RRIRKRPPRLPRPRPRPWYVPRP,shrunken log2 fold change,-0.958
RRIRWRPPRLPRPRPRPAGWPRP,shrunken log2 fold change,0.922
RRIRWRPPRLPRPRPRPMWDPRP,shrunken log2 fold change,0.157
RRIRLRPPRLPRPRPRPECDPRP,shrunken log2 fold change,-0.00082
RRIRSRPPRLPRPRPRPAKLPRP,shrunken log2 fold change,0.195
RRIRIRPPRLPRPRPRPPLLPRP,shrunken log2 fold change,0.444
